Measured values taken from paper PMC5806898.

B1: AP-5 ζ subunit (natural protein)
chain: MFSAGAESLLHQAREIQDEELKKFCSRICKLLQAEDLGPDTLDSLQRLFLIISATKYSRRLEKTCVDLLQATLGLPACPEQLQVLCAAILREMSPSDSLSLAWDHTQNSRQLSLVASVLLAQGDRNEEVRAVGQGVLRALESRQPEGPSLRHLLPVMAKVVVLSPGTLQEDQATLLSKRLVDWLRYASLQQGLPHSGGFFSTPRARQPGPVTEVDGAVATDFFTVLSSGHRFTDDQWLNVQAFSMLRAWLLHSGPEGPGTLDTDDRSEQEGSTLSVISATSSAGRLLPPRERLREVAFEYCQRLIEQSNRRALRKGDSDLQKACLVEAVLVLDVLCRQDPSFLYRSLSCLKALHGRVRGDPASVRVLLPLAHFFLSHGEAAAVDSEAVYQHLFTRIPVEQFHSPMLAFEFIQFCRDNLHLFSGHLSTLRLSFPNLFKFLAWNSPPLTSEFVALLPALVDAGTALEMLHALLDLPCLTAVLDLQLRSAPAASERPLWDTSLRAPSCLEAFRDPQFQGLFQYLLRPKASGATERLAPLHQLLQPMAGCARVAQCAQAVPTLLQAFFSAVTQVADGSLINQLALLLLGRSDSLYPAPGYAAGVHSVLSSQFLALCTLKPSLVVELARDLLEFLGSVNGLCSRASLVTSVVWAIGEYLSVTYDRRCTVEQINKFFEALEALLFEVTQCRPSAALPRCPPQVVTVLMTTLTKLASRSQDLIPRASLLLSKMRTLAHSPATSSTHSEEGAEAIRTRATELLTLLKMPSVAQFVLTPSTEVCSPRYHRDANTALPLALRTVSRLVEREAGLMPG

Columns and labels:
[1] = biological target: CD8-sortilin (UniProt Q99523); experiment: co-IP; native immunoprecipitation with anti-CD8 and protein A-Sepharose from HeLa cells expressing CD8-CIMPR or CD8-sortilin (control: HeLa cells); western blot, bands quantified with IMAGEJ, 3 repeats
[2] = biological target: CD8-CIMPR (UniProt P11717); experiment: as above
Chain of UniProt P11717 (P11717 whole entry): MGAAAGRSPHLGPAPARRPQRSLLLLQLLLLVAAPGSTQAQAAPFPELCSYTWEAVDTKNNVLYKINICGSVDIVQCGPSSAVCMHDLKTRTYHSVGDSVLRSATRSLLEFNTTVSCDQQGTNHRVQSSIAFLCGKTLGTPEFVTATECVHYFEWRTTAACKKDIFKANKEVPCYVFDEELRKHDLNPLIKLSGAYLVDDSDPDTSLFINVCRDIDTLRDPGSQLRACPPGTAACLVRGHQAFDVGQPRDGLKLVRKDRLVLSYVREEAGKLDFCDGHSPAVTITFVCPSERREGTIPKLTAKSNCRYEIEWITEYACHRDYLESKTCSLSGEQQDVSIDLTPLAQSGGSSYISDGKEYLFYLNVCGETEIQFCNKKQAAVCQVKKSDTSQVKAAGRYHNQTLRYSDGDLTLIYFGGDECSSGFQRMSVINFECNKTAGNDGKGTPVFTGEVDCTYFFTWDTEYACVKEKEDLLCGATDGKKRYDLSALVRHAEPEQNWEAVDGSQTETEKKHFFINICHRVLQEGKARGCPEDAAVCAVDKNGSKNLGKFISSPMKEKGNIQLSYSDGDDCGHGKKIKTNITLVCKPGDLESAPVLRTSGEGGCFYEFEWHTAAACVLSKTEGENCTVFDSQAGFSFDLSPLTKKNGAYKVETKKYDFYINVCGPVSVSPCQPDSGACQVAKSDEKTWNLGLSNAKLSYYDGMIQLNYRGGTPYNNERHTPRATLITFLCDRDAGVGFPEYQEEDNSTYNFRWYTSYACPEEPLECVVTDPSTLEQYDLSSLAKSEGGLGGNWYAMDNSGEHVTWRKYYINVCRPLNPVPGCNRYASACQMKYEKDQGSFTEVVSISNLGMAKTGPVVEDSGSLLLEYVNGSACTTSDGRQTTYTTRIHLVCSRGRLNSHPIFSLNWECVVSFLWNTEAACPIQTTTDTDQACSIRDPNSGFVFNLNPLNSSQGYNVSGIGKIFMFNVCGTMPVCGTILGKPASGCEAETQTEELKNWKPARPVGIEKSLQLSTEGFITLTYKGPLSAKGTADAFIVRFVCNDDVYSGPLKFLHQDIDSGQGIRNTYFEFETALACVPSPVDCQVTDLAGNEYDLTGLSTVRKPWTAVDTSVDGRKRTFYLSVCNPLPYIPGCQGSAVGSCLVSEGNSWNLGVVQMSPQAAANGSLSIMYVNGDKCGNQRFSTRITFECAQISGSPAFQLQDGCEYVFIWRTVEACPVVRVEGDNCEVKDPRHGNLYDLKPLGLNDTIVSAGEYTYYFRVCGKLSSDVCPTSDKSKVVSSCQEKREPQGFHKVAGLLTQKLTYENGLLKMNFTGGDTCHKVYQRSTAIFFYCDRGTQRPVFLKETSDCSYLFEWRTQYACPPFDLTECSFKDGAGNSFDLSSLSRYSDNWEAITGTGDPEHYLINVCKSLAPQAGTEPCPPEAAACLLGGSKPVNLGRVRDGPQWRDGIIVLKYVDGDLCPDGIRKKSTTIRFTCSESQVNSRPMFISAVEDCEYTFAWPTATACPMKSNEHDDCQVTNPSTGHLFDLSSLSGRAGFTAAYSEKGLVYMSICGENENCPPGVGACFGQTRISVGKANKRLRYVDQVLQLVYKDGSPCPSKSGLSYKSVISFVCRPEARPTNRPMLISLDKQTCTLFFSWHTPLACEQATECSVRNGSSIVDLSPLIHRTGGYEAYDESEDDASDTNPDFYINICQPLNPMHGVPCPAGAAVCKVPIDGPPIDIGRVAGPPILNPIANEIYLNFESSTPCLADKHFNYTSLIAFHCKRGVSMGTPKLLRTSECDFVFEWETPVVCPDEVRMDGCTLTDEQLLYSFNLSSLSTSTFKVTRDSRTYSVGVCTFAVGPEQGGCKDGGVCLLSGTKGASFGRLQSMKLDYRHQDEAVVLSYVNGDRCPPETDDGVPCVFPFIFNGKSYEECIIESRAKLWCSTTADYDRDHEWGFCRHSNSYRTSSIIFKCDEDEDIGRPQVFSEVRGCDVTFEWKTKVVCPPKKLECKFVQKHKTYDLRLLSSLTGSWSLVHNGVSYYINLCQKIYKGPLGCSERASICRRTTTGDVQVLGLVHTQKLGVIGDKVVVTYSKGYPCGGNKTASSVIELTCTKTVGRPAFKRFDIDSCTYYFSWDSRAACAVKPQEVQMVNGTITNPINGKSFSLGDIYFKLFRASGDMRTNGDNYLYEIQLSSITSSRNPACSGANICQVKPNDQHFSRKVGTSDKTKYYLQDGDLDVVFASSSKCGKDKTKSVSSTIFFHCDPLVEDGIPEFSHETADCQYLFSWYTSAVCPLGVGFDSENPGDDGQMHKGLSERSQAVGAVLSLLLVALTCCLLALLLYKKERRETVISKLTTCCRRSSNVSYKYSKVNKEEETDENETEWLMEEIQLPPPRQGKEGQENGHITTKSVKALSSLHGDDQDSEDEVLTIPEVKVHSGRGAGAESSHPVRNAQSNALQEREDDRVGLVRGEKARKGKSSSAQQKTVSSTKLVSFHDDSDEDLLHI

| Molecule | percent of input pulled down [1] [%] | percent of input pulled down [2] [%] |
| --- | --- | --- |
| AP-1 γ (from UniProt O43747 1-822) (natural protein) | 0.05 | 0.1 |
| SPG15 (from UniProt Q68DK2 1-2539) (natural protein) | 0.15 | 0.15 |
| B1 | 0.23 | 0.08 |
